For data set [1], the target named is T1, FoxO1 DBD 151-266 (human, UniProt Q12778 151-266). The experiment in a line: crystal structure.
Another data set concerns the target FoxO1 DBD 151-256 (human, UniProt Q12778 151-256). The data set can be described thus: EMSA. A general note: Mobility shift assays separate free from complexed probe on a gel.
Data set [2] addresses T1, FoxO1 DBD 151-266. The experiment in a line: EMSA.

T1 sequence (Q12778 151-266): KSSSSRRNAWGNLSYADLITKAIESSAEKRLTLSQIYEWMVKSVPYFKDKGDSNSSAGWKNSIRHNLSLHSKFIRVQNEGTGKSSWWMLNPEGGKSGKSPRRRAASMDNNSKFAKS
FoxO1 DBD 151-256, sequence (Q12778 151-256): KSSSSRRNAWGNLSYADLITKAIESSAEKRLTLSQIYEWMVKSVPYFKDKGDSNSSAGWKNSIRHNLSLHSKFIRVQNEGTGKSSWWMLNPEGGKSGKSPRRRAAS

B1: IRE (dsDNA)
DNA 1: TGGTTTGTTTTGCTTG
DNA 2: CAAGCAAAACAAACCA
For B1, the binding result with FoxO1 DBD 151-266 [1] and in the data set with FoxO1 DBD 151-256 was “binds” each time.

B2: DBE1 (dsDNA)
DNA 1: TGGTTTGTTTACCTTG
DNA 2: CAAGGTAAACAAACCA
As to B2, the binding signal with FoxO1 DBD 151-266 [2] was found to be 2 fold affinity vs IRE.

B3: DBE2 (dsDNA)
DNA 1: TCTTGTTTACATTTTG
DNA 2: CAAAATGTAAACAAGA
As for B3, in the data set with FoxO1 DBD 151-266 [2], the binding signal turned out to be 5 fold affinity vs DBE1.

(Values after paper PMC2597217.)
